Assay results taken from patent publication US20120045393A1 (priority 2009, published 2012).
Non-standard residues stand in square brackets, D forms with d. Primed or numbered codes have the meaning given here. DO3A10CM″ = chelating group at the N-terminus (X in the sequence tables); Bpa = N[C@@H](Cc1ccc(C(=O)c2ccccc2)cc1)C(=O)O; d2Nal = N[C@H](Cc1ccc2ccccc2c1)C(=O)O; DO3A10CM = not defined here; Dnalg1 = not defined here; Mogly = not defined here; Thz′ = not defined here; Tha = not defined here; azaGly = NNC(=O)O; Sar = CNCC(=O)O

B1: BRU-2441 (peptide)
peptide: XHWSHXWXPX
modifications: AA1 Sar; AA6 Darg; AA8 Bpa4; AA10 azaGly-NH2
B2: BRU-2764 (peptide)
peptide: XHWSHXWXPX
modifications: DO3A10CM on N-terminus; AA1 Sar; AA6 Darg; AA8 Aic2; AA10 azaGly-NH2
B3: BRU-2758 (peptide)
peptide: {DO3A10CM″}-[Sar]HWSH[dR]WYP[azaGly]-NH2
B4: BRU-3092 (peptide)
peptide: XRWSHXWXPX
modifications: DO3A10CM on N-terminus; AA1 Cafe4; AA6 Darg; AA8 Bpa4; AA10 azaGly-NH2
B5: BRU-2768 (peptide)
peptide: DO3A10CM-[Sar][Tha]WSH[dR]W[Bpa]P[azaGly]-NH2
modifications: reading uncertain
B6: BRU-2820 (peptide)
peptide: XHWSHXWXPX
modifications: DO3A10CM on N-terminus; AA1 Sar; AA6 Darg; AA8 Tyr(OBz); AA10 azaGly-NH2
B7: BRU-2737 (peptide)
peptide: XHWSHXWXPX
modifications: DO3A10CM on N-terminus; AA1 Ambz4; AA6 Darg; AA8 Bpa4; AA10 azaGly-NH2
B8: BRU-2770 (peptide)
peptide: DO3A10CM-G[Dnalg1]HWSH[dR]W[Bpa]P[azaGly]-NH2
modifications: reading uncertain
B9: BRU-2870 (peptide)
peptide: XHWSHXWXPX
modifications: DO3A10CM on N-terminus; AA1 Dtyr; AA6 Darg; AA8 Bpa4; AA10 azaGly-NH2
B10: BRU-2759 (peptide)
peptide: {DO3A10CM″}-[Sar][His(pime)]WSH[dR]W[Bpa]P[azaGly]-NH2
B11: BRU-2728 (peptide)
peptide: DO3A10CM-G[Thz′]HWSH[dR]W[Bpa]P[azaGly]-NH2
modifications: reading uncertain
B12: BRU-2742 (peptide)
peptide: XHWSHXWXPX
modifications: DO3A10CM on N-terminus; AA1 Sar; AA6 Darg; AA8 Tha; AA10 azaGly-NH2
B13: BRU-2796 (peptide)
peptide: DO3A10CM-G[Mogly]HWSH[dR]W[Bpa]P[azaGly]-NH2
modifications: reading uncertain
B14: BRU-2963 (peptide)
peptide: XXRWSHXWXPX
modifications: N-terminal DO3A10CM; Ambz4 linker before 1; Dnal2 at 1; Darg at 6; Bpa4 at 8; azaGly-NH2 at 10
B15: BRU-3111 (peptide)
peptide: XRRSHXWXPX
modifications: N-terminal DO3A10CM; Dnal2 at 1; Darg at 6; Bpa4 at 8; azaGly-NH2 at 10
B16: BRU-3098 (peptide)
peptide: KXRWSHXWXPX
modifications: Lys(DO3A10CM) before 1 (chelator on the Lys side chain); Dnal2 at 1; Darg at 6; Bpa4 at 8; azaGly-NH2 at 10
B17: BRU-2811 (peptide)
peptide: HWSHXWXPX
modifications: N-terminal DO3A10CM on His (AA1 absent); Darg at AA6; Bpa4 at AA8; azaGly-NH2 at AA10
B18: BRU-2956 (peptide)
peptide: XRWNHXWXPX
modifications: N-terminal DO3A10CM; Dnal2 at 1; Darg at 6; Bpa4 at 8; azaGly-NH2 at 10
B19: BRU-3027 (peptide)
peptide: XRWSHXWXPX
modifications: N-terminal DO3A10CM; Dnal2 at 1; Darg at 6; Nal2 at 8; azaGly-NH2 at 10
B20: BRU-2822 (peptide)
peptide: XHWSHXWXPX
modifications: pGlu at 1; Darg at 6; Bpa4 at 8; azaGly-NH2 at 10
B21: BRU-2803 (peptide)
peptide: XHWSHXWXPX
modifications: Ac-Dnal2 at 1; Darg at 6; Bpa4 at 8; azaGly-NH2 at 10
B22: BRU-2964 (peptide)
peptide: DO3A10CM-[d2Nal]RWMH[dR]W[Bpa]P[azaGly]-NH2
modifications: reading uncertain; also: printed as DO3A10CM-Dnal2-Arg-Trp-Met-His-Darg-Trp-Bpa4-Pro-azaGly-NH2
B23: BRU-3031 (peptide)
peptide: XRWSHRWXPX
modifications: N-terminal DO3A10CM; Dnal2 at 1; Bpa4 at 8; azaGly-NH2 at 10 (L-Arg at 6)
B24: BRU-3106 (peptide)
peptide: XRFSHXWXPX
modifications: N-terminal DO3A10CM; Dnal2 at 1; Darg at 6; Bpa4 at 8; azaGly-NH2 at 10
B25: BRU-3025 (peptide)
peptide: HRWSHXWXPX
modifications: N-terminal DO3A10CM; Darg at 6; Bpa4 at 8; azaGly-NH2 at 10
B26: BRU-2839 (peptide)
peptide: XHWSHXWXPX
modifications: Ac-Amfe4 at 1; Darg at 6; Bpa4 at 8; azaGly-NH2 at 10
B27: BRU-2962 (peptide)
peptide: GXRWSHXWXPX
modifications: N-terminal DO3A10CM; Gly linker before 1; Dnal2 at 1; Darg at 6; Bpa4 at 8; azaGly-NH2 at 10
B28: BRU-2997 (peptide)
peptide: XRWSHXWXPX
modifications: N-terminal DO3A10CM; Damfe4 at 1; Darg at 6; Bpa4 at 8; azaGly-NH2 at 10
B29: BRU-3050 (peptide)
peptide: RRWSHXWXPX
modifications: N-terminal DO3A10CM; Darg at 6; Bpa4 at 8; azaGly-NH2 at 10

These binders were tested against LHRH binding sites on EFO-27 human ovarian cancer cells (human) (assay: competition with [125I-Tyr8]BRU-2477 on EFO-27 cells).

Row | EC50 | times more potent than BRU-2439 | Binder
1 | 140 nM | 2 times | B1
2 | 4310 nM | – | B2
3 | 10000 nM | – | B3
4 | 2000 nM | – | B4
5 | 12800 nM | – | B5
6 | 1570 nM | – | B6
7 | 1400 nM | – | B7
8 | 2700 nM | – | B8
9 | 10000 nM | – | B9
10 | 10000 nM | – | B10
11 | 3150 nM | – | B11
12 | 10000 nM | – | B12
13 | 340 nM | – | B13

These binders were tested against LHRH receptor (LHRH binding sites) on EFO-27 human ovarian cancer cells (human) (assay: competition with [125I-Tyr8]BRU-2477, EFO-27 cells).

Row | EC50 | Binder
14 | 280 nM | B14
15 | 250 nM | B15
16 | 410 nM | B16
17 | 360 nM | B17
18 | 270 nM | B18
19 | 370 nM | B19
20 | 420 nM | B20
21 | 260 nM | B21
22 | 220 nM | B22
23 | 310 nM | B23
24 | 430 nM | B24
25 | 470 nM | B25
26 | 140 nM | B1
27 | 250 nM | B26
28 | 470 nM | B27
29 | 330 nM | B28
30 | 310 nM | B29
31 | 340 nM | B13
